# Laboratory results published in FireProtDB (doi:10.1021/bi00432a026).
# B1: Guanyl-specific ribonuclease T1 wild type, P00651 (protein)
# chain: MMYSKLLTLTTLLLPTALALPSLVERACDYTCGSNCYSSSDVSTAQAAGYQLHEDGETVGSNSYPHKYNNYEGFDFSVSSPYYEWPILSSGDVYSGGSPGADRVVFNENNQLAGVITHTGASGNNFVECT
# Details: Aspergillus oryzae (strain ATCC 42149 / RIB 40), DSC, reversible: yes, whole UniProt chain shown; for denaturant m value / denaturant midpoint (higher = more stable) / unfolding free energy: Urea; for Tm / heat capacity change of unfolding / unfolding enthalpy (calorimetric): Thermal
# [1] = pH 2.8, 27.75 °C, glycine 30 mM
protein,measurement,setting,value
B1,denaturant m value,"pH 2.8, 17.1 °C, glycine 30 mM",2.44 kcal/mol/M
same,denaturant midpoint (higher = more stable),"pH 2.8, 17.1 °C, glycine 30 mM",2.25 M
same,unfolding free energy,"pH 2.8, 17.1 °C, glycine 30 mM",5.41 kcal/mol
same,denaturant m value,"pH 2.8, 21.1 °C, glycine 30 mM",2.43 kcal/mol/M
same,denaturant midpoint (higher = more stable),"pH 2.8, 21.1 °C, glycine 30 mM",2.02 M
same,unfolding free energy,"pH 2.8, 21.1 °C, glycine 30 mM",4.85 kcal/mol
same,denaturant m value,"pH 2.8, 24.9 °C, glycine 30 mM",2.33 kcal/mol/M
same,denaturant midpoint (higher = more stable),"pH 2.8, 24.9 °C, glycine 30 mM",1.8 M
same,unfolding free energy,"pH 2.8, 24.9 °C, glycine 30 mM",4.33 kcal/mol
same,denaturant m value,[1],2.45 kcal/mol/M
same,denaturant midpoint (higher = more stable),[1],1.44 M
same,unfolding free energy,[1],3.48 kcal/mol
same,Tm,"pH 2.8, glycine 30 mM",42.6 °C
same,heat capacity change of unfolding,"pH 2.8, glycine 30 mM",2.2 kcal/mol/K
same,unfolding enthalpy (calorimetric),"pH 2.8, glycine 30 mM",95 kcal/mol
same,denaturant m value,"pH 5.95, 19.05 °C, MES 30 mM",1.19 kcal/mol/M
same,denaturant midpoint (higher = more stable),"pH 5.95, 19.05 °C, MES 30 mM",6.64 M
same,unfolding free energy,"pH 5.95, 19.05 °C, MES 30 mM",7.94 kcal/mol
same,denaturant m value,"pH 5.95, 22 °C, MES 30 mM",1.19 kcal/mol/M
same,denaturant midpoint (higher = more stable),"pH 5.95, 22 °C, MES 30 mM",6.32 M
same,unfolding free energy,"pH 5.95, 22 °C, MES 30 mM",7.55 kcal/mol
same,denaturant m value,"pH 5.95, 29.1 °C, MES 30 mM",1.18 kcal/mol/M
same,denaturant midpoint (higher = more stable),"pH 5.95, 29.1 °C, MES 30 mM",5.45 M
same,unfolding free energy,"pH 5.95, 29.1 °C, MES 30 mM",6.51 kcal/mol
same,Tm,"pH 5.95, MES 30 mM",52.8 °C
same,heat capacity change of unfolding,"pH 5.95, MES 30 mM",1.49 kcal/mol/K
same,unfolding enthalpy (calorimetric),"pH 5.95, MES 30 mM",104 kcal/mol
same,denaturant m value,"pH 7, 19.2 °C, MOPS 30 mM",1.21 kcal/mol/M
same,denaturant midpoint (higher = more stable),"pH 7, 19.2 °C, MOPS 30 mM",5.26 M
same,unfolding free energy,"pH 7, 19.2 °C, MOPS 30 mM",6.29 kcal/mol
same,denaturant m value,"pH 7, 21.1 °C, MOPS 30 mM",1.1 kcal/mol/M
same,denaturant midpoint (higher = more stable),"pH 7, 21.1 °C, MOPS 30 mM",4.98 M
same,unfolding free energy,"pH 7, 21.1 °C, MOPS 30 mM",5.95 kcal/mol
same,denaturant m value,"pH 7, 23.05 °C, MOPS 30 mM",1.2 kcal/mol/M
same,denaturant midpoint (higher = more stable),"pH 7, 23.05 °C, MOPS 30 mM",4.86 M
same,unfolding free energy,"pH 7, 23.05 °C, MOPS 30 mM",5.81 kcal/mol
same,denaturant m value,"pH 7, 25 °C, MOPS 30 mM",1.2 kcal/mol/M
same,denaturant midpoint (higher = more stable),"pH 7, 25 °C, MOPS 30 mM",4.58 M
same,unfolding free energy,"pH 7, 25 °C, MOPS 30 mM",5.47 kcal/mol
same,denaturant m value,"pH 7, 27 °C, MOPS 30 mM",1.2 kcal/mol/M
same,denaturant midpoint (higher = more stable),"pH 7, 27 °C, MOPS 30 mM",4.14 M
same,unfolding free energy,"pH 7, 27 °C, MOPS 30 mM",4.95 kcal/mol
same,denaturant m value,"pH 7, 29 °C, MOPS 30 mM",1.27 kcal/mol/M
same,denaturant midpoint (higher = more stable),"pH 7, 29 °C, MOPS 30 mM",3.93 M
same,unfolding free energy,"pH 7, 29 °C, MOPS 30 mM",4.7 kcal/mol
same,Tm,"pH 7, MOPS 30 mM",48.2 °C
same,heat capacity change of unfolding,"pH 7, MOPS 30 mM",1.72 kcal/mol/K
same,unfolding enthalpy (calorimetric),"pH 7, MOPS 30 mM",95.2 kcal/mol
same,denaturant m value,"pH 7.9, 19.05 °C, HEPPSO 30 mM",1.11 kcal/mol/M
same,denaturant midpoint (higher = more stable),"pH 7.9, 19.05 °C, HEPPSO 30 mM",4.19 M
same,unfolding free energy,"pH 7.9, 19.05 °C, HEPPSO 30 mM",5.01 kcal/mol
same,denaturant m value,"pH 7.9, 22 °C, HEPPSO 30 mM",1.25 kcal/mol/M
same,denaturant midpoint (higher = more stable),"pH 7.9, 22 °C, HEPPSO 30 mM",3.91 M
same,unfolding free energy,"pH 7.9, 22 °C, HEPPSO 30 mM",4.67 kcal/mol
same,denaturant m value,"pH 7.9, 25 °C, HEPPSO 30 mM",1.28 kcal/mol/M
same,denaturant midpoint (higher = more stable),"pH 7.9, 25 °C, HEPPSO 30 mM",3.44 M
same,unfolding free energy,"pH 7.9, 25 °C, HEPPSO 30 mM",4.11 kcal/mol
same,denaturant m value,"pH 7.9, 28.95 °C, HEPPSO 30 mM",1.19 kcal/mol/M
same,denaturant midpoint (higher = more stable),"pH 7.9, 28.95 °C, HEPPSO 30 mM",2.95 M
same,unfolding free energy,"pH 7.9, 28.95 °C, HEPPSO 30 mM",3.52 kcal/mol
same,Tm,"pH 7.9, HEPPSO 30 mM",43.3 °C
same,heat capacity change of unfolding,"pH 7.9, HEPPSO 30 mM",1.65 kcal/mol/K
same,unfolding enthalpy (calorimetric),"pH 7.9, HEPPSO 30 mM",87.1 kcal/mol
